Literature values in publication PMC12990809.

Tests used:
Test in all cases: pulldown
Conditions in all cases: 20 nM protein, 1.5 uM RNA pool; 20 mM HEPES pH 7.8, 70 mM KCl, 10 mM NaCl, 10% glycerol, 2 mM DTT, 0.1 ug/uL BSA; 30 min, 4 C (protocol of this paper; not …); cited from earlier work
[1] = target: T1, B52 (Drosophila melanogaster) (UniProt P26686)
T1 sequence: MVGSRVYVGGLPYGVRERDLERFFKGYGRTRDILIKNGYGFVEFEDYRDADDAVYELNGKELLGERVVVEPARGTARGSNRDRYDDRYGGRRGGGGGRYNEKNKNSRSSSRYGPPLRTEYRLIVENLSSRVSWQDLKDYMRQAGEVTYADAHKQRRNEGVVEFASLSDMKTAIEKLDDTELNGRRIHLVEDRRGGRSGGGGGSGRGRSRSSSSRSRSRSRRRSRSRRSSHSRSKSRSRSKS

[2] = target: T2, CG2931 (Drosophila melanogaster) (UniProt Q7JZA8)
T2 sequence: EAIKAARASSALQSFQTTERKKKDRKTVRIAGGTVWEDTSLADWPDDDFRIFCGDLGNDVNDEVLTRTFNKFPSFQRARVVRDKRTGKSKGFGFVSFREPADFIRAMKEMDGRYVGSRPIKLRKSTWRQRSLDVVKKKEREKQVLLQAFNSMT

HNRNPH2 (Homo sapiens) = target: T3, HNRNPH2 (Homo sapiens) (UniProt P55795)
T3 sequence: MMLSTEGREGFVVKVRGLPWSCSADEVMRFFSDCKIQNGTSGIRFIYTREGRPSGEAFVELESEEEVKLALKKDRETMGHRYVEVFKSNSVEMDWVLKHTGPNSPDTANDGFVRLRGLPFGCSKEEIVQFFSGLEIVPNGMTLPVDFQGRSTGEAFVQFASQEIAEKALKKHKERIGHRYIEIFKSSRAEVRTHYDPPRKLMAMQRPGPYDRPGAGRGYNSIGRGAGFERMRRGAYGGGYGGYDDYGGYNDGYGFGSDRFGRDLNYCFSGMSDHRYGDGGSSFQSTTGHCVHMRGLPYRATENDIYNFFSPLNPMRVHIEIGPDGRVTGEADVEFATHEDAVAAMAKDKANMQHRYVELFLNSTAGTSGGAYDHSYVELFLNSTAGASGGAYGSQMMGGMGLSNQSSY

[3] = target: T4, CG5213 (Drosophila melanogaster) (UniProt Q7JY27)
T4 sequence: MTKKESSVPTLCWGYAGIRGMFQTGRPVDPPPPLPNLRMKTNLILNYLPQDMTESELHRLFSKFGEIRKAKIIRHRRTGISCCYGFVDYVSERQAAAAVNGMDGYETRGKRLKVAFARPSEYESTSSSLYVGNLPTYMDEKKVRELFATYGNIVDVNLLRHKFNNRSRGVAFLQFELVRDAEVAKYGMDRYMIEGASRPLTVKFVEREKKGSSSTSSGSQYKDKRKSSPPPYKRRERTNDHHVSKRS

FXR1 (Homo sapiens) = FXR1 (Homo sapiens) (UniProt P51114)
PABPC1 (Homo sapiens) = PABPC1 (Homo sapiens) (UniProt P11940)
ESRP2 (Homo sapiens) = target: T5, ESRP2 (Homo sapiens) (UniProt Q9H6T0)
T5 sequence: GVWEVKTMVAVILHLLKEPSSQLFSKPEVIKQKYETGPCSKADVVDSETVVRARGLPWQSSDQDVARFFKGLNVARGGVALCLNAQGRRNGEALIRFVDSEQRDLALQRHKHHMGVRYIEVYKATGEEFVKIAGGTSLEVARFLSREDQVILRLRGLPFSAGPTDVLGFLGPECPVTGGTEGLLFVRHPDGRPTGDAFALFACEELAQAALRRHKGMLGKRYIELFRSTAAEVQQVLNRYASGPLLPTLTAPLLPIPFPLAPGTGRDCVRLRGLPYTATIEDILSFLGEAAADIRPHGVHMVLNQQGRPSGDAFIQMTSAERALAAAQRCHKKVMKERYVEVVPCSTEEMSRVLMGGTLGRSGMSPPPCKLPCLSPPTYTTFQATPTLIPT

RBM42 (Homo sapiens) = target: T6, RBM42 (Homo sapiens) (UniProt Q9BTD8)
T6 sequence: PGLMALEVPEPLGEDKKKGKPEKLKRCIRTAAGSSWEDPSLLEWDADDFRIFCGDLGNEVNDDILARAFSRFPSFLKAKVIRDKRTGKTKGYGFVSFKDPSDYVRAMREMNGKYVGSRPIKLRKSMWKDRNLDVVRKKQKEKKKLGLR

RALY (Homo sapiens) = RALY (Homo sapiens) (UniProt Q9UKM9)
[4] = target: T7, CG7804 (Drosophila melanogaster) (UniProt Q7JW23)
T7 sequence: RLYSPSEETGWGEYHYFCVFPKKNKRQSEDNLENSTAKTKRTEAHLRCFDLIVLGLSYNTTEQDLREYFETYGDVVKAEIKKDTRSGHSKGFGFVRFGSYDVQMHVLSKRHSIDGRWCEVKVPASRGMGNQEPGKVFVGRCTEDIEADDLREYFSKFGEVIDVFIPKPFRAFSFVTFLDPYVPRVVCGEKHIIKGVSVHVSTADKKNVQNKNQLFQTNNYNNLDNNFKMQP

[5] = target: pAbp (Drosophila melanogaster) (UniProt P21187)
[6] = target: T8, papi (Drosophila melanogaster) (UniProt Q9VQ91)
T8 sequence: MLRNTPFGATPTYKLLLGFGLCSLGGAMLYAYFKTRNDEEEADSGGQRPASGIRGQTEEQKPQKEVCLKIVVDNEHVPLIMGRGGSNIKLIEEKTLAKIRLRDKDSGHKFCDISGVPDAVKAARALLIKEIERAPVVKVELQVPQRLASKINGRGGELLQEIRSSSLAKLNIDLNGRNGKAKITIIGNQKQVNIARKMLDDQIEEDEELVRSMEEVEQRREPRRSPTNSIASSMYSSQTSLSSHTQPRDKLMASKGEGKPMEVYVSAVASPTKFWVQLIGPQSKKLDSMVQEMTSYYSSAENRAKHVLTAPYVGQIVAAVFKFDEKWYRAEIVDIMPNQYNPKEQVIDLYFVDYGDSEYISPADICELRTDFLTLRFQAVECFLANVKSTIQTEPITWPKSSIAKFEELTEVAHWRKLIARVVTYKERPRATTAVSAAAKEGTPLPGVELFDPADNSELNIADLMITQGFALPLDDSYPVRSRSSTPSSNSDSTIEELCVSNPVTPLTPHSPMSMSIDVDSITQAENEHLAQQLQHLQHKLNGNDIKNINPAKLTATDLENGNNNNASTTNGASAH

[7] = target: T9, qkr58E-1 (Drosophila melanogaster) (UniProt Q7JVR3)
T9 sequence: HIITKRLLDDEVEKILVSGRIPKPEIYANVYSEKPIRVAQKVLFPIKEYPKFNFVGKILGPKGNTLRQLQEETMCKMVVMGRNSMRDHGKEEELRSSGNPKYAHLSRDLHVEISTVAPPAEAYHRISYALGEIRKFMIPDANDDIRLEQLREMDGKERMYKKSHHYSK

CPEB4 (Homo sapiens) = target: T10, CPEB4 (Homo sapiens) (UniProt Q17RY0)
T10 sequence: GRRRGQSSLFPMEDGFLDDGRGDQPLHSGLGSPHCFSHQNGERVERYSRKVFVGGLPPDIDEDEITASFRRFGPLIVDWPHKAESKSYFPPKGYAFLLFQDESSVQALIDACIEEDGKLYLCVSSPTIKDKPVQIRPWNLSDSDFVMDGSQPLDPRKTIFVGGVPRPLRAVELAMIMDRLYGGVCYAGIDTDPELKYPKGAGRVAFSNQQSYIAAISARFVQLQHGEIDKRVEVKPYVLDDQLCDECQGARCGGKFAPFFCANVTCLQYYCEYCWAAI

RBMS1 (Homo sapiens) = target: T11, RBMS1 (Homo sapiens) (UniProt P29558)
T11 sequence: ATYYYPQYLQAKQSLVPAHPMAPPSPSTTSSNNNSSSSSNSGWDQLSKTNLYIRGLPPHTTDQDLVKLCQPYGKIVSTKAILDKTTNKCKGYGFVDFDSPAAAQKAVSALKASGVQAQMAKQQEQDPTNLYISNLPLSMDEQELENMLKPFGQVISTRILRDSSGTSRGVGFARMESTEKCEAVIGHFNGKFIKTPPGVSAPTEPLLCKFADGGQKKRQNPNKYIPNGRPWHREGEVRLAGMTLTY

PABPN1 (Homo sapiens) = target: T12, PABPN1 (Homo sapiens) (UniProt Q86U42)
T12 sequence: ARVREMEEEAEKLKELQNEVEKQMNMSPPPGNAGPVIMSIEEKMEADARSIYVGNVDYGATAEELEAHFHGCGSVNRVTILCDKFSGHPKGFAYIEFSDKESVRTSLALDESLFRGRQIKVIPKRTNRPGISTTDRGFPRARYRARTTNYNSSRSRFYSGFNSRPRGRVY

CPEB2 (Homo sapiens) = target: T13, CPEB2 (Homo sapiens) (UniProt Q7Z5Q1)
T13 sequence: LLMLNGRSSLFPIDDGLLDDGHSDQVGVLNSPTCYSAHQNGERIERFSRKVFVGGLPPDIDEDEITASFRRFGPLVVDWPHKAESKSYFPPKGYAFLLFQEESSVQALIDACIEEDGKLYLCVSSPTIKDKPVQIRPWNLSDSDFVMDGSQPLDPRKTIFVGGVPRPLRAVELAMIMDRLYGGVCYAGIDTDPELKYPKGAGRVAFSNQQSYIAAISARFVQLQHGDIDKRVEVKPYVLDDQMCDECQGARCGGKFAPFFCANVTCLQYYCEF

CNOT4 (Homo sapiens) = target: T14, CNOT4 (Homo sapiens) (UniProt O95628)
T14 sequence: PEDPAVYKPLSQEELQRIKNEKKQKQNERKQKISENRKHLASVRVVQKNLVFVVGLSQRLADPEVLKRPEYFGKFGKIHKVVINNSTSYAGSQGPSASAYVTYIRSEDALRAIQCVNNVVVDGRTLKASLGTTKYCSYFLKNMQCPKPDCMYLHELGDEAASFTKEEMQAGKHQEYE

A1CF (Homo sapiens) = target: T15, A1CF (Homo sapiens) (UniProt Q9NQ94)
T15 sequence: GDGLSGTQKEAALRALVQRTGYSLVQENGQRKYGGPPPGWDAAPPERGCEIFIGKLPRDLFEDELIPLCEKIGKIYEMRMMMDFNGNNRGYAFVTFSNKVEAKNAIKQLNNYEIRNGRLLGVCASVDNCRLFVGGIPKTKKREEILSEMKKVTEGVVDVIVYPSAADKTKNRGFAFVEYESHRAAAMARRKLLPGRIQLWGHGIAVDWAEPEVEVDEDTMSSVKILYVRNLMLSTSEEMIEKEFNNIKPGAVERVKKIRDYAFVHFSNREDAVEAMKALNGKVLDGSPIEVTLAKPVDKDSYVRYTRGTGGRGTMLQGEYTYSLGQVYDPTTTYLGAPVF

[8] = target: T16, snf (Drosophila melanogaster) (UniProt P43332)
T16 sequence: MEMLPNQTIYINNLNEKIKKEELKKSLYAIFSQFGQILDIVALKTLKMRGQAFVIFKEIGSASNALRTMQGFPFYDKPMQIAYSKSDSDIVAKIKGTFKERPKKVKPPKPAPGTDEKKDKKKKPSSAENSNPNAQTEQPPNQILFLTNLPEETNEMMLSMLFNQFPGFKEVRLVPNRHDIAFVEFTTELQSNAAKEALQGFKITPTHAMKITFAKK

[9] = target: T17, rin (Drosophila melanogaster) (UniProt A0ACM8PZ16)
T17 sequence: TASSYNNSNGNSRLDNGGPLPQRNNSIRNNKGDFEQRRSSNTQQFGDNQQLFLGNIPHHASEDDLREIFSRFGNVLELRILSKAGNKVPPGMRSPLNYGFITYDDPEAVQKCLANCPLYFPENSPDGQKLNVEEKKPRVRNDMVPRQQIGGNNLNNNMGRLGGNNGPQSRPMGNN

[10] = target: mub (Drosophila melanogaster) (UniProt M9NGB9)
PABPC3 (Homo sapiens) = PABPC3 (Homo sapiens) (UniProt Q9H361)
PABPC3 (Homo sapiens), sequence (Q9H361 1-414): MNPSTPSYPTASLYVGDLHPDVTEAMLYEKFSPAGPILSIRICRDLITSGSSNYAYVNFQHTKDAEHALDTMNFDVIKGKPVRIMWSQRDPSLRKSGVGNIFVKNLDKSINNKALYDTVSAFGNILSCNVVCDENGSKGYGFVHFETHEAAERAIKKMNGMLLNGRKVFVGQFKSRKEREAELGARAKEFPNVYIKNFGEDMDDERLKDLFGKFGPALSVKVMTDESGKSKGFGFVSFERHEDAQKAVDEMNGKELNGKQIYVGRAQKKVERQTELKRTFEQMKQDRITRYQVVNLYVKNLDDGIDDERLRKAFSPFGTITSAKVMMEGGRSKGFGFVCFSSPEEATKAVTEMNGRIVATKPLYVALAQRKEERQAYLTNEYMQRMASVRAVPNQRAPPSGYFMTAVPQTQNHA

RALY (Homo sapiens), sequence (Q9UKM9 1-136): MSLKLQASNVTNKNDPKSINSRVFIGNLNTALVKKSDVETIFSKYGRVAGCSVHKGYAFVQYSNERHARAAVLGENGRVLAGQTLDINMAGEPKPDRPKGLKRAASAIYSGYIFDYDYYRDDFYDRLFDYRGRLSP
mub (Drosophila melanogaster), sequence (M9NGB9 entry or part of it): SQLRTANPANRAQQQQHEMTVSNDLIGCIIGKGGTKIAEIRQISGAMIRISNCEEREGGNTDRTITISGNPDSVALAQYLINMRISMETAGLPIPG
FXR1 (Homo sapiens), sequence (P51114 170-401): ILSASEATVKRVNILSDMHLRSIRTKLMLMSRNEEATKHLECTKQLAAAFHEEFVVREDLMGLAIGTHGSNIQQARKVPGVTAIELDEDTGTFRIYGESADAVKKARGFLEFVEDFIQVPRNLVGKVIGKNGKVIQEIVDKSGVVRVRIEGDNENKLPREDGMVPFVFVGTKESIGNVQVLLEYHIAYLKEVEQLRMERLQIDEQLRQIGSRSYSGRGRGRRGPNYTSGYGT
PABPC1 (Homo sapiens), sequence (P11940 1-414): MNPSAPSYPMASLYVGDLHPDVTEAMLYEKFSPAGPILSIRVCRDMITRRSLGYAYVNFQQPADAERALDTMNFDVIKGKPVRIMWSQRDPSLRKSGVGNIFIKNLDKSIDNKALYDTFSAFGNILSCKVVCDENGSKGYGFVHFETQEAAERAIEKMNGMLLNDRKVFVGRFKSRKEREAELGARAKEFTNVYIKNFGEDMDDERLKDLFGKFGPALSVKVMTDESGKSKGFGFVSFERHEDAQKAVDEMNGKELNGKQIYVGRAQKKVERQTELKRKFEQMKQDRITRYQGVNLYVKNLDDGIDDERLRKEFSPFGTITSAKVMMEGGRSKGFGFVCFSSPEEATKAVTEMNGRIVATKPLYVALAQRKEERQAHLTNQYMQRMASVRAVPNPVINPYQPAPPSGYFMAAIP
pAbp (Drosophila melanogaster), sequence (P21187 1-408): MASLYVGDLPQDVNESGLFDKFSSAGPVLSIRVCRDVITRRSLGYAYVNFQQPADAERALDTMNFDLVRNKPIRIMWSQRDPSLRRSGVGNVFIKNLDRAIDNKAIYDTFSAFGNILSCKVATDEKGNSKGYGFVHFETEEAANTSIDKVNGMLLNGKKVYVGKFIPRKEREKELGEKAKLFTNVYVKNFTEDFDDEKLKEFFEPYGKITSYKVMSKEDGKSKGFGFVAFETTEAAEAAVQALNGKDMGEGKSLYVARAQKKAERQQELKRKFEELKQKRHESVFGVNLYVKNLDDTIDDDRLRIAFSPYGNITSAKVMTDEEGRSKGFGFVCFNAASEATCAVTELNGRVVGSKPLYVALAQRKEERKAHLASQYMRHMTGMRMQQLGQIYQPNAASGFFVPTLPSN

Substance: GGAGGGG [RNAcompete motif RNCMPT00134]
- binding signal (z-score (mean of top ten 7-mers)) [1]: 7.73

Substance: ACUAAG [RNAcompete motif RNCMPT00147]
- binding signal (z-score (mean of top ten 7-mers)) [2]: 11.6

Substance: GGGAGGG [RNAcompete motif RNCMPT00160]
- binding signal (z-score (mean of top ten 7-mers)) (HNRNPH2 (Homo sapiens)): 16.8

Substance: UACUUU [RNAcompete motif RNCMPT00010]
- binding signal (z-score (mean of top ten 7-mers)) [3]: 11.8

Substance: AAUGACAA [RNAcompete motif RNCMPT00161]
- binding signal (z-score (mean of top ten 7-mers)) (FXR1 (Homo sapiens)): 6.01

Substance: GAAAAA [RNAcompete motif RNCMPT00155]
- binding signal (z-score (mean of top ten 7-mers)) (PABPC1 (Homo sapiens)): 11.3

Substance: AUGGGGA [RNAcompete motif RNCMPT00150]
- binding signal (z-score (mean of top ten 7-mers)) (ESRP2 (Homo sapiens)): 7.36

Substance: AACUANG [RNAcompete motif RNCMPT00151]
- binding signal (z-score (mean of top ten 7-mers)) (RBM42 (Homo sapiens)): 11.2

Substance: UUUUUU [RNAcompete motif RNCMPT00159]
- binding signal (z-score (mean of top ten 7-mers)) (RALY (Homo sapiens)): 16.1

Substance: GNGUG [RNAcompete motif RNCMPT00146]
- binding signal (z-score (mean of top ten 7-mers)) [4]: 8.15

Substance: GAAAA [RNAcompete motif RNCMPT00139]
- binding signal (z-score (mean of top ten 7-mers)) [5]: 13

Substance: UNUGUGU [RNAcompete motif RNCMPT00011]
- binding signal (z-score (mean of top ten 7-mers)) [6]: 17.7

Substance: ANAAUAA [RNAcompete motif RNCMPT00142]
- binding signal (z-score (mean of top ten 7-mers)) [7]: 6.18

Substance: UUUUUU [RNAcompete motif RNCMPT00158]
- binding signal (z-score (mean of top ten 7-mers)) (CPEB4 (Homo sapiens)): 14.8

Substance: AUAUAG [RNAcompete motif RNCMPT00152]
- binding signal (z-score (mean of top ten 7-mers)) (RBMS1 (Homo sapiens)): 7.69

Substance: AGAAGA [RNAcompete motif RNCMPT00157]
- binding signal (z-score (mean of top ten 7-mers)) (PABPN1 (Homo sapiens)): 11.4

Substance: CCUUUUU [RNAcompete motif RNCMPT00012]
- binding signal (z-score (mean of top ten 7-mers)) (CPEB2 (Homo sapiens)): 10.8

Substance: GACAGA [RNAcompete motif RNCMPT00156]
- binding signal (z-score (mean of top ten 7-mers)) (CNOT4 (Homo sapiens)): 19

Substance: UAAUUG [RNAcompete motif RNCMPT00001]
- binding signal (z-score (mean of top ten 7-mers)) (A1CF (Homo sapiens)): 12.6

Substance: UUGCACA [RNAcompete motif RNCMPT00145]
- binding signal (z-score (mean of top ten 7-mers)) [8]: 14

Substance: GGGUGGG [RNAcompete motif RNCMPT00138]
- binding signal (z-score (mean of top ten 7-mers)) [9]: 9.16

Substance: AACCCU [RNAcompete motif RNCMPT00137]
- binding signal (z-score (mean of top ten 7-mers)) [10]: 10.1

Substance: AAAACC [RNAcompete motif RNCMPT00153]
- binding signal (z-score (mean of top ten 7-mers)) (PABPC3 (Homo sapiens)): 8.16
